Tests used:
[1] = target: Alexa647-labeled microtubules (porcine brain tubulin), antiparallel overlaps (porcine) (UniProt P02550)
[2] = target: Alexa647-labeled microtubules (porcine brain tubulin), antiparallel overlaps (porcine) (UniProt P02550); remark: listed apart in the source

UniProt P02550, sequence (P02550 whole entry): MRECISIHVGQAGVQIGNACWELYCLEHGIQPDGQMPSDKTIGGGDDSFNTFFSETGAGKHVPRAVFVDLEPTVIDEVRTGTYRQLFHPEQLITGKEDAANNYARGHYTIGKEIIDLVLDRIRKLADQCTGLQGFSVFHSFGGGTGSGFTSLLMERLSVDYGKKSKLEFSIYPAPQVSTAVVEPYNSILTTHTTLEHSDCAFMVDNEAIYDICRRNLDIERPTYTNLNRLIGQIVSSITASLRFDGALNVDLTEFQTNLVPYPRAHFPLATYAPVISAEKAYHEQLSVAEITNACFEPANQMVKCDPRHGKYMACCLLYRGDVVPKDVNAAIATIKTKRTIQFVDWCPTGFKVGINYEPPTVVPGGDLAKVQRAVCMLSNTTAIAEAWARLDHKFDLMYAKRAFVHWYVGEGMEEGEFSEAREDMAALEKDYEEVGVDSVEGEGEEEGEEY

fold decrease of affinity against unphosphorylated PRC1 [1] | Kd [2] | Substance
> 10 fold | – | CDK1-phosphorylated PRC1-Alexa546 (human PRC1 isoform 2) (from UniProt O43663-2 1-576) (natural protein)
– | 9.6 nM | PLK1-phosphorylated PRC1-Alexa546 (human PRC1 isoform 2) (from UniProt O43663-4 1-606) (natural protein)

— article PMC11522559
